Experimental data from the supplement of paper PMC9170038.

System: MS2 coat protein
Assay: apparent KD of MS2 coat protein; higher = weaker reporter binding
Conditions: Eterna round: R107
Outline: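 On-chip transcription from Illumina sequencing clusters produced the designed RNA switches. These were titrated with SNAP-549-labelled MS2 coat protein (twofold steps, 0.7 or 1.5 nM to 3 µM) in 100 mM Tris-HCl pH 7.5, 80 mM KCl, 4 mM MgCl2, with or without constant ligand. The apparent KD given is the per-design median of normalised cluster binding-curve fits.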

[1] = input ligand: theophylline 20 uM
[2] = input ligand: theophylline 2 mM
[3] = input ligand: tryptophan 2.4 mM

Row | Sequence | apparent KD of MS2 coat protein (input ligand: arginine 13.2 mM) | apparent KD of MS2 coat protein (input ligand: none) | apparent KD of MS2 coat protein [1] | apparent KD of MS2 coat protein [2] | apparent KD of MS2 coat protein [3]
1 | CGCCGCGCGGGAAGGAGCGCGAUUACAUAACAUGAGGAUCACCCAUGUAAGAAAUUAUUCAUGCAGGUAGGUCGCCCGCGCGGCG [Same State Arginine B GF 5] | 58.8 nM | 22.3 nM | 28.4 nM | 22.8 nM | 22.8 nM
2 | CGGUCGGUCGGCCGGUGAUUAUGGGAUGAAGGAGCGUGGGAAGCUACAGGUAGGUCGCAUCCGAACCAUGAGGAUCACCCAUGGU [SSArg A #23Alt-Ms2 Mod] | 23.2 nM | 25.1 nM | 26.8 nM | 39.2 nM | 21.7 nM
3 | CGGUUUGUGAUGGAUACCAGCAGAGAGAAUGUUUAUCCUGACAUGAGGAUCACCCAUGUGUGCCCUUGGCAGCUGUUGUGGGCUG [8.Y] | 42.4 nM | – | 102 nM | – | 55.8 nM
4 | CGUAGGAUCGUGGAUACCAGUACCGCCCACGACAUGAGGAUCACCCAUGUAGGUAAUCUUUACCCUUGGCAGCCAUUUUUUUCUG [theeternabot_sameState_MS2_Theo_B_14] | 41 nM | – | 72.6 nM | – | 45.2 nM
5 | CGUAUUGGAAACAGUACGAGUGAUCCGGUCCGAGGACCGGUACGGCCGCCACUCGAAAAUAAAUAACAUGAGGAUCACCCAUGUA [Ex Tryptophan A 8] | 19.5 nM | – | 21.6 nM | 19.8 nM | –
6 | CGUGAUCCCUGUGAUACCAGAAGUACAUGAGGAUCACCCAUGUCAAACACAAAACCAAGCUUCCCUUGGCAGCAUAGUCGUUAAG [Esmaenbiza] | 67.1 nM | – | 240 nM | – | 224 nM
7 | CGUGCUAGGGCGGCCGCCACUGUGGCUACGGUACAUGAGGAUCACCCAUGUUUGUGGUUGAUCUACAGGACCGGGCCCUGGCACG [Radiaerdi] | 131 nM | 107 nM | 442 nM | 756 nM | 280 nM
8 | CGUGGUGGGACGGAUACCAGCCACCGCGGCAACGCAACAUGAGGAUCACCCAUGUUGGGUGGCCCUUGGCAGCUGUGCUGCGACG [#1 Same State - Theophylline B Attempt #28 (HarryS)] | 50.9 nM | 182 nM | 191 nM | 34.2 nM | 95.2 nM
9 | CUAUAUAUAAGAAGGAGCGUCGAAAAUGGGUAAACAUGAGGAUCACCCAUGUAAAGGGAACGACAGGUAGGUCGCUUAUAUAUAG [AstromonsSSArgB#5] | 151 nM | 191 nM | 169 nM | 184 nM | 206 nM
10 | CUCAUCCACGCGGCCGCCACUAUAUUGUGGUGUGAGUGUGACGUAUUACAUGAGGAUCACCCAUGUAGGACCGGGCGUGGAUGAG [#06 Exclusion Tryptophan B] | 30.9 nM | – | 51.3 nM | 50.2 nM | –
11 | CUCCCGUGAGCGGCCGCCACUGGAGGCCUCGCGCGACAUGAGGAUCACCCAUGUUGGCCCGGCCUCAGGACCGGGUUCGCGCGAG [Same State - Tryptophan B Attempt #5 (HarryS)] | 7.94 nM | 9.67 nM | 12.4 nM | 9.89 nM | 7.41 nM
12 | CUCUGAGUGAUCGCUCACUCAGAGGCGGAUACCAGCGAGGUCCAUCGCCCUUGGCAGCCGAACAUGAGGAUCACCCAUGUCGGUA [#1 Same State - Theophylline A Attempt #20 (HarryS)] | 8.77 nM | 10.3 nM | 13.7 nM | 12.9 nM | 8.98 nM
13 | CUCUGGUGCUGAGUGAGUGUCGUGACUGAUACCAGAUGCCUUUACAUCCCUUGGCAGCAGUACAUGAGGAUCACCCAUGUAUUCC [Rireusrama] | 17.2 nM | – | 33.5 nM | – | 21.1 nM
14 | CUGCUACAUGAGGAUCACCCAUGUGGAGAUACCAGCCUGAACGAUGGCCCUUGGCAGCUCUUAGCUGGUGAUCAUAUAUUUCAGA [Zazaat] | 25.3 nM | – | 68.2 nM | – | 28.2 nM
15 | CUGUACAUCUCGGCCGCCACUGCAACAUGUAGAGAUGUAUAUGUACAUGAGGAUCACCCAUGUGGCAGGACCGGGAGGUGUGCAG [SSTryp B #27] | 167 nM | 147 nM | 128 nM | 206 nM | 111 nM
16 | CUUACGGGAAACCGACCCAAACAACGGGAAGGAGCGCCAAACAAGGCAGGUAGGUCGCCCACAUGAGGAUCACCCAUGUGUUGGG [Exclusion Arginine A GF 26] | 42.6 nM | 38 nM | 47.7 nM | 42.3 nM | 45.1 nM
17 | GAACAUAUGGAUACUAUUAUGAGCACAGAAGGAGCGAGCGGAAGCUCAGGUAGGUCGCUGGGUAACAUGAGGAUCACCCAUGUUG [XArg-A sub1] | 18.7 nM | 19.1 nM | 24.7 nM | 25.6 nM | 20.8 nM
18 | GAACAUGAGGAUCACCCAUGUAAAACAGAUACCAGUGAUAUAAUACACCCUUGGCAGCUGAAGCUGAAUAAUAAUUCCCUCAAGC [Same State Theophylline A GF1] | 17 nM | – | 20 nM | – | 15 nM

Row | Sequence | apparent KD of MS2 coat protein (input ligand: arginine 13.2 mM) | apparent KD of MS2 coat protein (input ligand: none) | apparent KD of MS2 coat protein [1] | apparent KD of MS2 coat protein [2] | apparent KD of MS2 coat protein [3]
19 | GACAGAAACUGAAGGAGCGAGGUAAAACGGGAUGAGCAAACAUGAGGAUCACCCAUGUGGCCUCAGGUAGGUCGCAGAAAGAAAC [Exclusion Arginine B GF24] | 180 nM | 130 nM | 183 nM | 123 nM | 135 nM
20 | GACGAGUAGACGGCCGCCACUAUGCUGCGCAGCCCUAGAAACGCACAUGAGGAUCACCCAUGUCUUAGGACCGGGUCGAACUUAA [theeternabot_sameState_MS2_Trp_B_48] | 47.7 nM | – | 107 nM | 96.2 nM | –
21 | GACGGUACGUCGGCAAAGCCGAUGUGCCAGCGAGGACCGGUACGGCCGCCACUCGUACAUGAGGAUCACCCAUGUCCGGUCCGUC [Omei Trp SS A C v3] | 51.7 nM | 122 nM | 108 nM | 167 nM | 129 nM
22 | GAGUAGAGGACGGCCGCCACUGAACAUGAGGAUCACCCAUGUCGUGAUCCGUUACCUAGGGUAGAUAGGACCGGGUCAUGUACUC [Exclusion Tryptophan B GF 18] | 37.2 nM | – | 68.8 nM | 56.7 nM | –
23 | GAGUAGUAGACGGCCGCCACUAAACAUGAGGAUCACCCAUGUAGUGAUCCGUUACCUAGCGUAGAUAGGACCGGGUCAGAUAGUA [Exclusion Tryptophan B GF 14] | 21.6 nM | – | 31.7 nM | 25.9 nM | –
24 | GAGUUGUGCUCAGGCCCGACUCGCUGAGAAGGAGCGCACUAAGGUGCAGGUAGGUCGCUCAGGAAUACAUGAGGAUCACCCAUGU [Erlaatti] | 21.7 nM | 22.9 nM | 29.9 nM | 28.5 nM | 25.2 nM
25 | GAUAACAUGAGGAUCACCCAUGUGGCGUCGCGAGGACCGGUACGGCCGCCACUCGGCAGUUCAACUCGAAUAUAGUGAUCGAAGU [theeternabot_sameState_MS2_Trp_A_16] | 47.6 nM | – | 182 nM | 223 nM | –
26 | GAUGAUAUUGCAGAUACCAGACACAUGAGGAUCACCCAUGUCGCUGGGUCGCUGGGUCGUGUCCCUUGGCAGCUGCGAUAUCAUC [Tibet] | 16.3 nM | 20.3 nM | 47.8 nM | 339 nM | 21.4 nM
27 | GCACCAGGUACGGAUACCAGCUAUAGGCCCAAUGGGCGACAUGAGGAUCACCCAUGUGAUGGCCCUUGGCAGCUGUACCUGGUGC [SSThB NP+V+V2 #9] | 148 nM | – | 193 nM | – | 218 nM
28 | GCACGACAUGAGGAUCACCCAUGUGCAGAUACCAGUAAUGUAUGUUACCCUUGGCAGCUGAGUAGGUCUGGAGGGCUAUAGGUUU [Same State Theophylline A GF13] | 15.4 nM | 13.9 nM | 17.2 nM | 15.6 nM | 14.1 nM
29 | GCAGUGGGUUAUAAGUAAUAGAAUUCUGAAGGAGCGUGAUGAAACACAGGUAGGUCGCAGGAACAUGAGGAUCACCCAUGUACGG [Same State Arginine A GF20] | 61.4 nM | 58.7 nM | 51.6 nM | 37.6 nM | 50.3 nM
30 | GCAUCCUAGUCGGCCGCCACUGCGAAUAGGUCCUGAGUGAUCUAACAUGAGGAUCACCCAUGUAGCAGGACCGGGACUAGGAUGC [(Trp1)-(TM)''-(TM)'-(Ms2)-(Trp2)_Design5] | 12.8 nM | 16.5 nM | 22.3 nM | 23 nM | 17.3 nM
31 | GCAUCCUAGUCGGCCGCCACUGCGGAUCCGGUUCUAGAUCCUUAACAUGAGGAUCACCCAUGUAGCAGGACCGGGACUAGGAUGC [(Trp1)-(TM)''-(TM)'-(Ms2)-(Trp2)_Design2] | 91 nM | 237 nM | 251 nM | 324 nM | 295 nM
32 | GCCAUCGGCGGAAGCCGAUGGGAUACAGAAGGAGCGUAGGAAACUACAGGUAGGUCGCUGGACAUGAGGAUCACCCAUGUGAUAG [SSAA #11] | 19.6 nM | 24 nM | 31.9 nM | 31.6 nM | 22.7 nM
33 | GCCAUCGGCGGAAGCCGAUGGUAUACAGAAGGAGCGUAGGAAACUACAGGUAGGUCGCUGGACAUGAGGAUCACCCAUGUAAUAG [#27 Same State - Arginine A] | 22.2 nM | 15.2 nM | 26.7 nM | 17.5 nM | 21.8 nM
34 | GCCGGUACGUCGGCAAAGCCGAUGUGCCAGCGAGGACCGGUACGGCCGCCACUCGUACAUGAGGAUCACCCAUGUCCGGUCCGGC [Omei Trp SS A C v1] | 26.7 nM | – | 62.5 nM | 71.8 nM | –
35 | GCCUAGCAGCGAAGGAGCGAGGUAACUUAAUAAAUAAAUACAAGAGGAUCACCCUUGUUUCCUCAGGUAGGUCGCGCUGCUAGGC [SSAB Alternative Aptamer #2 NP+V+V2] | 18.2 nM | 22.6 nM | 25.6 nM | 20.9 nM | 23.5 nM
